Experimental data taken from US20200140512A1 (Xencor, published 2020).
Residue numbers refer to the chain shown, from its start. In names and notes the source's numbering stands.

How the values were obtained:
[1] = biological target: T1, human PD-1-His (human, UniProt Q15116 25-167, limits assumed); test: Octet (Example 7A, told again)
T1 construct: not shown: His tag

[2] = biological target: T1, human PD-1-His; test: Octet, antibody captured on anti-human Fc (AHC) biosensors, dipped into multiple concentrations of PD-1-His
[3] = biological target: T2, PD-1 (antigen of the Octet affinity measurements of Example 9 and of the affinities quoted afterwards) (UniProt Q15116 25-167, limits assumed); test: Octet affinity screen, bivalent IgG1 format
T2 construct: most likely human PD-1-His

[4] = biological target: T1, human PD-1-His; test: Octet, antibody on AHC biosensors, multiple concentrations of PD-1-His

T1 sequence (Q15116 25-167 limits assumed): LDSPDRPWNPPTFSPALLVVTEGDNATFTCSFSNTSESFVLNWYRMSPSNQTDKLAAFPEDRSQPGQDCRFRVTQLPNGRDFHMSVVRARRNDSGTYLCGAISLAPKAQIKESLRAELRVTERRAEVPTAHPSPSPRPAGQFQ
T2 sequence (Q15116 25-167 limits assumed): as above

B1: XENP28536 (bivalent mAb based on humanized mAb C, mAb C[PD-1]_H1L1) (antibody, human IgG1, V domains shown)
VH: EVQLVESGGGLVQPGGSLRLSCAASGFTFSSFGMHWVRQAPGKGLEWVSYISSGSSIIYYADSVKGRFTISRDNAKNSLYLQMNSLRAEDTAVYYCARGGRLVWSPDYWGQGTLVTVSS
VL: DIVMTQSPDSLAVSLGERATINCKSSQSLLNSGNQKNYLTWYQQKPGQPPKLLIYWASTRESGVPDRFTGSGSGTDFTLTISSLQAEDVAVYYCQNDYSYPFTFGSGTKLEIK
notes: also called WT
B1: binds [1].

B2: XENP28538 (humanized variant of anti-PD-1 mAb C, bivalent human IgG1) (antibody, V domains shown)
VH: B1 VH with Q13K, S49G, S63P, A75S, S78T, R87K, A88T
VL: DIVMTQSPDSLAVSLGERATINCKSSQSLLNSGNQKNYLTWYQQKPGQPPKLLIYWASTRESGVPDRFTGSGSGTDFTLTISSLQAEDVAVYYCQNDYSYPFTFGSGTKLEIKR
notes: Human IgG1 with E233P/L234V/L235A/G236del/S267K
B2: no binding [2].

B3: mAb C[PD-1]_H1_L1.1 (bivalent IgG1 format with E233P/L234V/L235A/G236_/S267K ablation variants) (antibody, V domains shown)
VH: B1 VH
VL: B2 VL with N31H
notes: Human IgG1 with ablation variants; copies: 2 + 2
In the case of B3, the “fold improved affinity over WT” value [3] is reported as 2 fold.

B4: XENP28539 (humanized variant of anti-PD-1 mAb C, bivalent human IgG1) (antibody, V domains shown)
VH: B1 VH with Q13K, S49G, S63P, A75S, S78T, R87K, A88T
VL: DIVMTQSPLSLPVTPGEPASISCRSSQSLLNSGNQKNYLTWYLQKPGQPPQLLIYWASTRESGVPDRFTGSGSGTDFTLKISRVEAEDVGVYYCQNDYSYPFTFGSGTKLEIKR
notes: as for B2
B4: no binding [2].

B5: mab_C[PD-1]_H1_L1.3 (bivalent IgG1 format with E233P/L234V/L235A/G236_/S267K ablation variants) (antibody, V domains shown)
VH: B1 VH
VL: B2 VL with N31S
notes: as for B3
In the case of B5, the “fold improved affinity over WT” value [3] is reported as greater than 2 fold.

B6: XENP28519 (bivalent mAb based on humanized mAb A) (antibody, human IgG1, kappa, V domains shown)
VH: QVQLQESGPGLVKPSQTLSLTCTVSGHSITSDYAWNWIRQPPGKKLEWIGYISYSGYTTYNPSLKSRVTISRDTSKNQFSLKLSSVTAADTAVYFCARDLDYGPWFAYWGQGTLVTVSS
VL: DIQMTQSPSSLSASVGDRVTITCRASENIHNYLAWYQQKPGKSPKLLVYNVKTLADGVPSRFSGSGSGTDYTLTISSLQPEDFATYYCQHFWSSPWTFGGGTKVEIKR
notes: also called anti-PD-1 mAb XENP28519
B6: binds [4].
